Source: article PMC4894380

Biological target: MqsA (Escherichia coli (strain of the protein …, UniProt Q46864 1-131))
Assay: EMSA; shift at 50-, 100- and 200-fold excess MqsA; 10 mM Tris-HCl pH 7.5, 50 mM KCl, 1 mM DTT, 1 ug poly(dI.dC), 30-50 fmol labeled probe, ambient temperature, 1 h; 6% gel, 0.5x TBE

MqsA (Escherichia coli, sequence (Q46864 whole entry): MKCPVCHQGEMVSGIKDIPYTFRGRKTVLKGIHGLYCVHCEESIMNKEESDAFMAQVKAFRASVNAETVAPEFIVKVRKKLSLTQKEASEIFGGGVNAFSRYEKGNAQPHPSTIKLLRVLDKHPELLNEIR

B1: p-csgD native palindrome 30-mer (dsDNA)
DNA 1: ACTTAATAAAACCTTAAGGTTAACATTTTA
DNA 2: TAAAATGTTAACCTTAAGGTTTTATTAAGT
B1: binds.
